Among the data in US20230265164A1 (MIT, published 2023) are Kd values, retold here.

In general, Kd refers to the equilibrium constant for the complex coming apart. Lower therefore signals a tighter complex.

Assay [1] addresses T1, CCL25 (UniProt O15444 24-150, limits assumed).
T1 sequence (looked up): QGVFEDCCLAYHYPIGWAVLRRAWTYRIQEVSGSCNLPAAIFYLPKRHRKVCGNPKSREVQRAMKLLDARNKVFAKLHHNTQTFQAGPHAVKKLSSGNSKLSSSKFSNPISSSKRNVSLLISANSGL
Put plainly: MicroScale Thermophoresis; 5 nM NT647-labeled receptor-Fc against a ligand gradient, 25 C. On the procedure:
(§1) MicroScale Thermophoresis (MST) is an optical method detecting changes in thermophoretic movement and TRIC of the protein-attached fluorophore upon ligand binding. Active labelled proteins contribute to the thermophoresis signal upon ligand binding. […] Herein ligand binding experiments were carried out with 5 nM NT647-labeled protein in 1×PBS, 10 mM DTT buffer with different concentration of arginine, against a gradient of respective ligands on a Monolith NT.115 pico instrument at 25° C. Synthesized receptors were labeled with Monolith NT™ 2nd generation protein labeling kit RED-NHS (NanoTemper Technologies) so as to obtain unique fluorescent signals. MST time traces were recorded and analyzed to obtain the highest possible signal-to-noise levels and amplitudes, >5 Fnorm units. The recorded fluorescence was plotted against the concentration of ligand, and curve fitting was performed using the Kd fit formula derived from the law of mass action. For clarity, binding graphs of each independent experiment were normalized to the fraction bound (0=unbound, 1=bound). MST experiments were performed in the Center for Macromolecular Interactions at Harvard Medical School.

Assay [2] concerns the target T2, IL8 (UniProt P10145 28-99, limits assumed).
T2 sequence (looked up): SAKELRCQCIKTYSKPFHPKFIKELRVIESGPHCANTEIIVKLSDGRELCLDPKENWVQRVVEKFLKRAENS
The assay is described as above. The protocol: as §1

B1: CCR9^QTY-Fc (Fc fusion)
chain: MTPTDFTSPIPNMADDYGSESTSSMEDYVNFNFTDFYCEKNNVRQFASHYQPPQYWQTYTTGAQGNSQTTQTYWYCTRVKTMTDMYQQNQATADQQYQTTQPYWATAAADQWKFQTFMCKTTNSMYKMNYYSCTQQTMCTSTDRYTATAQAMRAHTWREKRQQYSKMTCYTTWTQAAAQCTPETQYSQIKEESGIAICTMVYPSDESTKQKSATQTQKTTQGYYQPYTTMACCYTTTTHTQTQAKKSSKHKAQKTTTTTQTTYTQSQYPYNCTQQTQTTDAYAMFISNCATSTNTDTCYQTTQTTAYYHSCQNPTQYTYTGERFRRDLVKTLKNLGCISQAQWVSFTRREGSLKLSSMLLETTSGALSLTETSQVAPAHHHHHHHHHHTETSQVAPAHHHHHHHHHHGSKLVDPRGPTIKPCPPCKCPAPNLLGGPSVFIFPPKIKDVLMISLSPIVTCVVVDVSEDDPDVQISWFVNNVEVHTAQTQTHREDYNSTLRVVSALPIQHQDWMSGKEFKCKVNNKDLPAPIERTISKPKGSVRAPQVYVLPPPEEEMTKKQVTLTCMVTDFMPEDIYVEWTNNGKTELNYKNTEPVLDSDGSYFMYSKLRVEKKNWVERNSYSCSVVHEGLHNHHTTKSFSRTPGK
modifications: NT647 (RED-NHS) fluorescent dye on lysines/N-terminus in the MST assay; positions not given.
In the case of B1, binding in assay [1] was put at a Kd of 0.0372 µM.

B2: CXCR2^QTY-Fc (Fc fusion)
chain: MEDFNMESDSFEDFWKGEDLSNYSYSSTLPPFLLDAAPCEPESLEINKYYTTTTYAQTYQQSQQGNSQTMQTTQYSRVGRSVTDTYQQNQAQADQQYAQTQPTWAASKVNGWIFGTFLCKTTSQQKETNYYSGTQQQACTSTDRYLAIVHATRTLTQKRYLVKYTCQSTWGQSQQQAQPTQQYRRTVYSSNVSPACYEDMGNNTANWRMQQRTQPQSYGYTQPQQTMQYCYGFTLRTLFKAHMGQKHRAMRTTYATTQTYQQCWQPYNQTQQADTLMRTQVIQETCERRNHIDRAQDATETQGTQHSCQNPQTYAYTGQKFRHGLLKILAIHGLISKDSLPKDSRPSFVGSSSGHTSTTLTETSQVAPAHHHHHHHHHHGSKLVDPRGPTIKPCPPCKCPAPNLLGGPSVFIFPPKIKDVLMISLSPIVTCVVVDVSEDDPDVQISWFVNNVEVHTAQTQTHREDYNSTLRVVSALPIQHQDWMSGKEFKCKVNNKDLPAPIERTISKPKGSVRAPQVYVLPPPEEEMTKKQVTLTCMVTDFMPEDIYVEWTNNGKTELNYKNTEPVLDSDGSYFMYSKLRVEKKNWVERNSYSCSVVHEGLHNHHTTKSFSRTPGK
modifications: NT647 (RED-NHS) fluorescent dye on lysines/N-terminus in the MST assay; positions not given.
notes: also called CXCR29QTY-Fc
Molecule B2 registered a Kd in assay [2] of 0.0603 µM.
